The source of these data is patent US8969060B2, “Modified glucose dehydrogenase” (Ikeda Food Research Co., Ltd., priority 2011, dated 2015).

Data set [1] can be described thus: Relative enzymatic activity of GLD (DCIP/1-m-PMS, plate reader, yeast culture supernatant) with 1,10-phenanthroline present. Conditions: site-specific mutants, inhibitor final concentration 1 mM. It is filed as biochemical. In outline: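 Yeast transformants grown in YPD, 30° C., 24 h; diluted culture supernatant assayed in phosphate buffer pH 7.0 with D-glucose, DCIP and 1-m-PMS, DCIP absorbance change at 600 nm. Relative activity (%) = activity with 1 mM 1,10-phenanthroline (final, replacing methanol) divided by activity without it.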

Data set [2] in a line: Relative enzymatic activity of GLD (DCIP/1-m-PMS, plate reader, yeast culture supernatant) with proflavin hydrochloride present. It is filed as biochemical. Conditions: site-specific mutants, inhibitor final concentration 1 mM. The method in brief:
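Culture supernatant diluted and mixed with reagent of phosphate buffer pH 7.0, 1.0 M D-glucose, 3 mM DCIP, 3 mM 1-m-PMS and methanol (0.1:1:0.14:0.2:0.06). DCIP absorbance decrease at 600 nm followed; proflavin hydrochloride in methanol replaced methanol at 1 mM final. Activity expressed as % of inhibitor-free blank.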

B1: Y424Q: modified GLD: SEQ ID NO: 1 with substitution Y424Q (protein, listed as Aspergillus terreus)
chain: MLGKLSFLSALSLAVAAPLSNSTSAKYDYIVIGGGTSGLAVANRLSEDPNVNVLILEAGGSVWNNPNVTNVDGYGLAFGSDIDWQYQSVNQPYGGNLSQVLRAGKALGGTSTINGMAYTRAEDVQIDAWETIGNTGWTWKNLFPYYRKSENFTVPTKSQTSLGASYEAGAHGHEGPLDVAFTQIESNNLTTYLNRTFQGMGLPWTEDVNGGKMRGFNLYPSTVNLEEYVREDAARAYYWPYKSRPNLHVLLNTFANRIVWDGEAHDGHITASGVEITSRNGTVRVINAEKEVIVSAGALKSPAILELSGIGNPSVLDKHNIPVKVNLPTVGENLQDQVNSHMDASGNTSISGTKAVSYPDVYDVFGDEAESVAKQIRANLKQYAADTAKANGNIMKAADLERLFEVQYDLIFKGRVPIAEVLNQPGSATSVFAEFWALLPFARGSVHIGSSNPAEFPVINPNYFMLDWDAKSYVAVAKYIRRSFESYPLSSIVKESTPGYDVIPRNASEQSWKEWVFDKNYRSNFHPVGTAAMMPREIGGVVDERLNVYGTTNVRVVDASVLPFQVCGHLVSTLYAVAERAADLIKADAGRR
modifications: SIGNAL (1)..(19)
Regarding B1, the “Relative Activity [%] 1,10-Phenanthroline” value in data set [1] amounted to 80.2%. In addition, the “Relative Activity [%] Proflavin hydrochloride” value in data set [2] amounted to 50.2%.

B2: Y424V: modified GLD: SEQ ID NO: 1 with substitution Y424V (protein, listed as Aspergillus terreus)
chain: MLGKLSFLSALSLAVAAPLSNSTSAKYDYIVIGGGTSGLAVANRLSEDPNVNVLILEAGGSVWNNPNVTNVDGYGLAFGSDIDWQYQSVNQPYGGNLSQVLRAGKALGGTSTINGMAYTRAEDVQIDAWETIGNTGWTWKNLFPYYRKSENFTVPTKSQTSLGASYEAGAHGHEGPLDVAFTQIESNNLTTYLNRTFQGMGLPWTEDVNGGKMRGFNLYPSTVNLEEYVREDAARAYYWPYKSRPNLHVLLNTFANRIVWDGEAHDGHITASGVEITSRNGTVRVINAEKEVIVSAGALKSPAILELSGIGNPSVLDKHNIPVKVNLPTVGENLQDQVNSHMDASGNTSISGTKAVSYPDVYDVFGDEAESVAKQIRANLKQYAADTAKANGNIMKAADLERLFEVQYDLIFKGRVPIAEVLNVPGSATSVFAEFWALLPFARGSVHIGSSNPAEFPVINPNYFMLDWDAKSYVAVAKYIRRSFESYPLSSIVKESTPGYDVIPRNASEQSWKEWVFDKNYRSNFHPVGTAAMMPREIGGVVDERLNVYGTTNVRVVDASVLPFQVCGHLVSTLYAVAERAADLIKADAGRR
modifications: SIGNAL (1)..(19)
On to B2, for which, in data set [1], the “Relative Activity [%] 1,10-Phenanthroline” value was 49.1%. The “Relative Activity [%] Proflavin hydrochloride” value in data set [2] came out at 46.7%.

B3: G352A: modified GLD: SEQ ID NO: 1 with substitution G352A (protein, listed as Aspergillus terreus)
chain: MLGKLSFLSALSLAVAAPLSNSTSAKYDYIVIGGGTSGLAVANRLSEDPNVNVLILEAGGSVWNNPNVTNVDGYGLAFGSDIDWQYQSVNQPYGGNLSQVLRAGKALGGTSTINGMAYTRAEDVQIDAWETIGNTGWTWKNLFPYYRKSENFTVPTKSQTSLGASYEAGAHGHEGPLDVAFTQIESNNLTTYLNRTFQGMGLPWTEDVNGGKMRGFNLYPSTVNLEEYVREDAARAYYWPYKSRPNLHVLLNTFANRIVWDGEAHDGHITASGVEITSRNGTVRVINAEKEVIVSAGALKSPAILELSGIGNPSVLDKHNIPVKVNLPTVGENLQDQVNSHMDASGNTSISATKAVSYPDVYDVFGDEAESVAKQIRANLKQYAADTAKANGNIMKAADLERLFEVQYDLIFKGRVPIAEVLNYPGSATSVFAEFWALLPFARGSVHIGSSNPAEFPVINPNYFMLDWDAKSYVAVAKYIRRSFESYPLSSIVKESTPGYDVIPRNASEQSWKEWVFDKNYRSNFHPVGTAAMMPREIGGVVDERLNVYGTTNVRVVDASVLPFQVCGHLVSTLYAVAERAADLIKADAGRR
modifications: SIGNAL (1)..(19)
B3: the “Relative Activity [%] 1,10-Phenanthroline” value in data set [1] is 76.1%. Moreover, the “Relative Activity [%] Proflavin hydrochloride” value in data set [2] was determined as 47.9%.

B4: Y424R: modified GLD: SEQ ID NO: 1 with substitution Y424R (protein, listed as Aspergillus terreus)
chain: MLGKLSFLSALSLAVAAPLSNSTSAKYDYIVIGGGTSGLAVANRLSEDPNVNVLILEAGGSVWNNPNVTNVDGYGLAFGSDIDWQYQSVNQPYGGNLSQVLRAGKALGGTSTINGMAYTRAEDVQIDAWETIGNTGWTWKNLFPYYRKSENFTVPTKSQTSLGASYEAGAHGHEGPLDVAFTQIESNNLTTYLNRTFQGMGLPWTEDVNGGKMRGFNLYPSTVNLEEYVREDAARAYYWPYKSRPNLHVLLNTFANRIVWDGEAHDGHITASGVEITSRNGTVRVINAEKEVIVSAGALKSPAILELSGIGNPSVLDKHNIPVKVNLPTVGENLQDQVNSHMDASGNTSISGTKAVSYPDVYDVFGDEAESVAKQIRANLKQYAADTAKANGNIMKAADLERLFEVQYDLIFKGRVPIAEVLNRPGSATSVFAEFWALLPFARGSVHIGSSNPAEFPVINPNYFMLDWDAKSYVAVAKYIRRSFESYPLSSIVKESTPGYDVIPRNASEQSWKEWVFDKNYRSNFHPVGTAAMMPREIGGVVDERLNVYGTTNVRVVDASVLPFQVCGHLVSTLYAVAERAADLIKADAGRR
modifications: SIGNAL (1)..(19)
Consider B4, for which the “Relative Activity [%] 1,10-Phenanthroline” value in data set [1] stood at 70.3%. Also, the “Relative Activity [%] Proflavin hydrochloride” value in data set [2] is recorded as 55.6%.

B5: Y424T: modified GLD: SEQ ID NO: 1 with substitution Y424T (protein, listed as Aspergillus terreus)
chain: MLGKLSFLSALSLAVAAPLSNSTSAKYDYIVIGGGTSGLAVANRLSEDPNVNVLILEAGGSVWNNPNVTNVDGYGLAFGSDIDWQYQSVNQPYGGNLSQVLRAGKALGGTSTINGMAYTRAEDVQIDAWETIGNTGWTWKNLFPYYRKSENFTVPTKSQTSLGASYEAGAHGHEGPLDVAFTQIESNNLTTYLNRTFQGMGLPWTEDVNGGKMRGFNLYPSTVNLEEYVREDAARAYYWPYKSRPNLHVLLNTFANRIVWDGEAHDGHITASGVEITSRNGTVRVINAEKEVIVSAGALKSPAILELSGIGNPSVLDKHNIPVKVNLPTVGENLQDQVNSHMDASGNTSISGTKAVSYPDVYDVFGDEAESVAKQIRANLKQYAADTAKANGNIMKAADLERLFEVQYDLIFKGRVPIAEVLNTPGSATSVFAEFWALLPFARGSVHIGSSNPAEFPVINPNYFMLDWDAKSYVAVAKYIRRSFESYPLSSIVKESTPGYDVIPRNASEQSWKEWVFDKNYRSNFHPVGTAAMMPREIGGVVDERLNVYGTTNVRVVDASVLPFQVCGHLVSTLYAVAERAADLIKADAGRR
modifications: SIGNAL (1)..(19)
For B5, the “Relative Activity [%] 1,10-Phenanthroline” value in data set [1] amounted to 71.2%. In addition, the “Relative Activity [%] Proflavin hydrochloride” value in data set [2] is recorded as 43.4%.

B6: Y424S: modified GLD: SEQ ID NO: 1 with substitution Y424S (protein, listed as Aspergillus terreus)
chain: MLGKLSFLSALSLAVAAPLSNSTSAKYDYIVIGGGTSGLAVANRLSEDPNVNVLILEAGGSVWNNPNVTNVDGYGLAFGSDIDWQYQSVNQPYGGNLSQVLRAGKALGGTSTINGMAYTRAEDVQIDAWETIGNTGWTWKNLFPYYRKSENFTVPTKSQTSLGASYEAGAHGHEGPLDVAFTQIESNNLTTYLNRTFQGMGLPWTEDVNGGKMRGFNLYPSTVNLEEYVREDAARAYYWPYKSRPNLHVLLNTFANRIVWDGEAHDGHITASGVEITSRNGTVRVINAEKEVIVSAGALKSPAILELSGIGNPSVLDKHNIPVKVNLPTVGENLQDQVNSHMDASGNTSISGTKAVSYPDVYDVFGDEAESVAKQIRANLKQYAADTAKANGNIMKAADLERLFEVQYDLIFKGRVPIAEVLNSPGSATSVFAEFWALLPFARGSVHIGSSNPAEFPVINPNYFMLDWDAKSYVAVAKYIRRSFESYPLSSIVKESTPGYDVIPRNASEQSWKEWVFDKNYRSNFHPVGTAAMMPREIGGVVDERLNVYGTTNVRVVDASVLPFQVCGHLVSTLYAVAERAADLIKADAGRR
modifications: SIGNAL (1)..(19)
B6: in data set [1], the “Relative Activity [%] 1,10-Phenanthroline” value is given as 81.4%. In addition, in data set [2], the “Relative Activity [%] Proflavin hydrochloride” value is given as 61.0%.
